Test results: patent US8247227B2, “Dendritic cell precursors” (The Cleveland Clinic Foundation, priority 2006, dated 2012)

B1: Flt3 ligand (protein, UniProt P49771 27-235, looked up)
Fms-related tyrosine kinase 3 …: TQDCSFQHSPISSDFAVKIRELSDYLLQDYPVTVASNLQDEELCGGLWRLVLAQRWMERLKTVAGSKMQGLLERVNTEIHFVTKCAFQPPPSCLRFVQTNISRLLQETSEQLVALKPWITRQNFSRCLELQCQPDSSTLPPPWSPRPLEATAPTAPQPPLLLLLLLPVGLLLLAAAWCLHWQRTRRRTPRPGEQVPPVPSPQDLLLVEH
notes: recombinant human Flt3 ligand, gift of Amgen
B2: interleukin-6 (protein, UniProt P08505 25-211, looked up)
Interleukin-6: FPTSQVRRGDFTEDTTPNRPVYTTSQVGGLITHVLWEIVEMRKELCNGNSDCMNNDDALAENNLKLPEIQRNDGCYQTGYNQEICLLKISSGLLEYHSYLEYMKNNLKDNKKDKARVLQRDTETLIHIFNQEVKDLHKIVLPTPISNALLTDKLESQKEWLRTKTIQFILKSLEEFLKVTLRSTRQT
B3: granulocyte-macrophage colony stimulating factor (protein, UniProt P01587 18-141, looked up)
Granulocyte-macrophage …: APTRSPITVTRPWKHVEAIKEALNLLDDMPVTLNEEVEVVSNEFSFKKLTCVQTRLKIFEQGLRGNFTKLKGALNMTASYYQTYCPPTPETDCETQVTTYADFIDSLKTFLTDIPFECKKPGQK
notes: murine GMCSF from Immunex

Tests used:
BM cells [1] = test: Step 2 culture: DC maturation and IL-12 production upon CpG+LPS after Step 1 conditioning; assay type: cell-based, mouse; conditions: for Step 2 response to TLR agonists (DC maturation) after Step 1 conditioning: CpG+LPS stimulation
Source text: Following Step 1 conditioning, BM cultures were washed thoroughly and exposed to TLR agonists to test the cells' potential for DC maturation and IL-12 production during Step 2 culture. Since TLR9 and TLR4 were invariably expressed by mouse BM cells at the end of Step 1 cultures (not shown), we standardly employed CpG (ODN 1826) and lipopolysaccharide (LPS) to stimulate coordinate activation of MyD88 and TRIF pathways (Napolitani, G. et al. Nat. Immunol. 6, 769-776 (2005)).
(§1) Step 2 was initiated (0 hr) in CM, rmGMCSF and optionally rmIL4. Step 2 cultures were performed in 24 well cluster plates, 4 million BM cells per well in 2 ml CM. DC1 polarization stimuli such as CpG (ODN 1826, 5 μM) and LPS 50 ng/ml were added between 18-24 hrs, and cells harvested at 40-44 hrs for analyses. When included, immunosuppressive agents rmIL10, rmVEGF, rhTGFβ1 or PGE2 were added between 0 and 24 hrs of Step 2 culture at doses specified in Results. Alternatively, particulate tumor cells, either viable unirradiated, viable irradiated (10,000 cGy), or killed freeze-thawed lysate (Cohen, P A et al. Cancer Res. 54, 1055-1058 (1994)), were added to Step 2 BM cells. Viable tumor cells were sometimes labelled with CFSE (Molecular Probes, Eugene, Oreg.) to allow their identification and exclusion during subsequent FACS analyses (Peng, L. et al. J. Immunol. 169, 4811-4821 (2002)).
For routine multicolor FACS analyses, BM cells were cultured in anti-CD32 mAb plus normal mouse IgG to block FcRs, then directly stained with conjugated specific mAbs or isotype controls as listed in the figures (BD-Pharmingen, Mountain View, Calif.) (Peng, L. et al. J. Immunol. 165, 5738-5749 (2000)). When additionally assessing IL12 production at the cellular level, the last 16 hrs of Step 2 culture were performed in monensin (Golgistop™, BD-PharMingen). Then, following FcR block and direct staining of surface molecules, cells were fixed in formalin and permeabilized in tween (CytoPerm/CytoFix™, PharMingen), then additionally stained with PE-anti-mouse IL12p40 (BD-Pharmingen) or isotype control.
Assessments of supernatant contents of mIL12p70 heterodimer were performed with BD-Pharmingen reagents. mIFNα and mIFNβ ELISAs were performed with kits from PBL Biomedical Laboratories (New Brunswick, N.J.).

[2] = single agent; cited from earlier work
BM cells [3] = test: Step 2 culture: spontaneous DC maturation without exogenous maturation stimuli; assay type: cell-based, mouse
Source text: DC differentiation typically arrests at the immature stage unless DCs are exposed to additional signals such as CD40 ligation, calcium ionophore or TLR agonists (Xu, S. et al. J. Immunol. 171, 2251-2261 (2003); Bonifaz, L. et al. J. Exp. Med. 196, 1627-1638 (2002); Napolitani, G. et al. Nat. Immunol. 6, 769-776 (2005); Czerniecki, B J et al. J. Immunol. 159, 3823-3837 (1997); Mailliard, R B et al. Cancer Res. 64, 5934-5937 (2004)). […] Instead, uniform upregulation of MHC Class II and CD11c ensued within hours of transfer from Flt3L+IL6 into GMCSF, followed by upregulation of CD40, co-stimulatory molecules and CCR7 between 48 and 72 hours of Step 2 culture.
as §1

[4] = system: CD34^pos stem cell subpopulation; test: Step 1 proliferative culture of fresh bone marrow: numeric expansion; assay type: cell-based, mouse; conditions: fresh mouse BM, 6-7 day Step 1 culture
Procedure: FIG. 6 is a chart showing numeric expansion resulting from the exposure of bone marrow (BM) suspensions to various factors. BM freshly harvested from C57BL/6 mice was cultured for 6 days in the specific factors, then harvested and counted. Each bar represents 3-11 determinations±s.d., each performed in synchronous comparison to at least five other groups. […] Synergistic expansions reflected a 35-80 fold selective outgrowth of the CD34^pos subpopulation (see FIG. 10);
FIG. 10 is a histogram showing gross numeric expansion of fresh bone marrow (BM) reflective of selective outgrowth of the CD34^pos subpopulation. Freshly prepared mouse BM cell suspensions were stained with FITC-anti-CD34 mAb to enable isolation of CD34^pos and CD34^neg subpopulations by a FACSAria cell sorter. CD34^pos cells initially represented 10.8±7% of the total BM cells. The following groups were then cultured for 6 days in 75 cm^2 flasks, either in Flt3L+SCF+IL6 (striped bars) or in Flt3L+IL6 (solid bars): “Unfractionated BM” (12-15 million per flask); “FACS sorted CD34^neg cells” (12-15 million per flask); “FACS sorted CD34^pos cells” (2-3 million per flask); or “FACS sorted, unirradiated CD34^pos cells plus irradiated (3,000 cGy) CD34^neg cells.” Labels above bars indicate fold numeric expansion during the 6 day culture. […] (Not done=group not done);
We cultured fresh mouse BM in two stages, a 6-7 day proliferative phase (Step 1) and a 2-3 day post-proliferative phase (Step 2). […] FACS sorting experiments confirmed that such expansion represented a net 35-80 fold proliferation of the minor (<12%) CD34^pos stem cell subpopulation, with rapid dropout of the initially CD34^neg subpopulation (FIG. 10). Stem cell proliferation persisted well past day 7 if medium and factors were adequately replenished (not shown).
Single cell suspensions were prepared from the femurs and tibias of healthy mice (Kuriyama, H. et al. Dev. Biol. (Basel) 116, 169-178 (2004)). Following RBC lysis by ammonium chloride, no further processing was performed. […] BM cells were normally cultured for 6-7 days, harvested, counted, and washed twice in PBS prior to initiation of Step 2 cultures.

mouse tumors = conditions: single agent; cited from earlier work
L-selectin^low T cells = test: T cell co-cultures with variously conditioned DCs; assay type: cell-based, mouse; conditions: DCs prepared after the named Step 1 conditioning
Procedure: Step 2 DC cultures were performed in rGMCSF and rIL-4 with irradiated MCA-203 cells added at 24 hr and CpG+LPS added at 44 hr. Four hours later, DCs were harvested for co-culture with L-selectin^low T cells freshly harvested from MCA-203 tumor-bearing mice. T cells were co-cultured with DCs at an 8:1 ratio or were activated with immobilized anti-CD3. […] Cultures shown also received exogenous IL-2, IL-7 and IL-15.
Cultures shown also received exogenous IL2, IL7 and IL15.
Conditioned DC precursors were transferred to Step 2 culture, exposed to viable irradiated tumor, optionally further activated with CpG+LPS, then co-cultured with tolerized TDLN T cells from mice bearing the relevant tumor.
Prior to harvest of T cells from tumor-bearing mice, DCs were prepared under various Step 1 conditions in CM; Step 2 was performed in 1% non heat-deactivated mouse serum instead of FCS (CM-MS), during which BM cultures were exposed to viable irradiated tumor cells, then CpG+LPS as denoted in Results. On the day of DC harvest, T cells were freshly harvested from the tumor-draining lymph nodes of mice bearing 12 day tumors. The L-selectin^low (tolerized pre-effector) fraction of T cells was isolated by negative selection as described previously (Peng, L. et al. J. Immunol. 165, 5738-5749 (2000); Wang, L. et al. J. Translational Med. 2, 41 (2004)), and cultured in CM-MS with immobilized anti-CD3 (Peng, L. et al. J. Immunol. 165, 5738-5749 (2000); Wang, L. et al. J. Translational Med. 2, 41 (2004)) or variously conditioned DCs. Beginning on day 2 of T cell culture, some groups also received rhIL2 (24 I.U./m1), or rhIL2, rhIL7 (50 ng/ml) and rhIL15 (5 ng/ml). T cells were harvested for assays and adoptive therapy after 12 days of culture.

[5] = system: CD11c^pos (committed DC) subpopulation; test: In vivo responses to TLR agonists; set-up: species or system mouse; conditions: i.p. treatment
Procedure: FIG. 21 is a bar graph showing in vivo responses to TLR agonists. Mice were injected for 6 days with 10 mcg i.p. rhFlt3-L or no treatment. On the subsequent day, some mice were treated with a single i.p. injection for rmGMCSF 12 mcg. On the subsequent day, some mice were injected with i.p. with 50 mcg CpG (ODN 1826) and 100 mcg pI:C. […] The next day, mice were euthanized and spleens counted and analyzed by FACS for the activation status of the CD11c^pos (committed DC) subpopulation. MHC Class II, CD40, and CD86 (B7.2) were co-analyzed.

conditioned BM cells = test: Tumor contact during Step 2 culture: DC maturation and IL12 production; assay type: cell-based, mouse
Procedure: Because DC ingestion of cellular material can induce tolerogenic DCs (Bonifaz, L. et al. J. Exp. Med. 196, 1627-1638 (2002)), we tested the impact of exposing DCs to large volumes of tumor at 16-24 hours of Step 2 culture in GMCSF, to determine tumor's impact on subsequent spontaneous maturation. To cluster plate wells each containing 4 million conditioned BM cells, we added either 4 million freeze-thawed (killed) tumor cells; 3 million irradiated (10,000 cGy), trypan-excluding tumor cells; or 2 million unirradiated, actively proliferating tumor cells. Given the much larger dimensions of viable tumor cells compared to the cultured BM cells, these represented voluminous tumor challenges.
as §1

STAT3KO BM = test: Conditioning of STAT3 knockout BM; assay type: cell-based, mouse
Procedure: (§2) FIG. 18 illustrates responses of STAT knockout vs. wildtype littermate BM to Flt3-L+IL-6 vs. GMCSF-containing conditioning regiments. […] BM was obtained from KO mice or from matched wildtype LMs, placed in standard Step 1 cultures with Flt3-L+IL-6, Flt3-L+IL-6+GMCSF, or GMCSF alone as conditioning agents, then placed in 48 hr Step 2 cultures with GMCSF+IL-4 with CpG+LPS included during the final 18 hours. […] Data are presented as mean±s.d. of 3 replicates and are representative of three (STAT5KO vs LM) or two (STAT3KO vs LM) independently performed experiments;
(§3) We examined how STAT knockout BM preparations responsed to Flt3L+IL-6 conditioning. […] Therefore, the proliferative and differentiative impacts of Flt3-L+IL-6 conditioning were absolutely STAT3-dependent, whereas final phenotypic maturation and DC1-polarization were at least partially STAT5-dependent.
(§4) We also examined how STATKO BM preparations responded to GMCSF-containing Step 1 regimens (GMCSF alone, Flt3-L+GMCSF, or Flt3-L+GMCSF+IL-6). […] Therefore, all tested GMCSF-containing regimens promoted STAT5-dependent DC differentiation, with later phenotypic maturation and DC1-polarization proving susceptible to inhibition through STAT3.

STAT5KO BM = test: Conditioning of STAT5 knockout BM; assay type: cell-based, mouse
Procedure: as §2, §3, §4

Row | Molecule | Step 2 response to TLR agonists (DC maturation) after Step 1 conditioning (BM cells [1]) | myeloproliferative activity in animals [2] | spontaneous DC maturation during Step 2 culture (BM cells [3]; after Step 1 conditioning, no exogenous maturation stimuli) | numeric expansion during Step 1 culture [4] | therapeutic properties against established mouse tumors (mouse tumors) | effect of GMCSF addition during Step 2 culture (BM cells [1]; GMCSF added in Step 2 only) | effect of co-conditioning with GMCSF on Flt3L+IL6's licensing impact (BM cells [1]; GMCSF present in Step 1) | effect of conditioned DCs on tolerized T cell co-cultures (proliferation / toxicity) (L-selectin^low T cells) | activation of maturation markers MHC Class II, CD40, CD86 on CD11c^pos spleen cells [5] | effect of GMCSF as Step 1 agent on licensing of spontaneous DC maturation by Flt3L or Flt3L+IL6 (BM cells [3]) | effect of GMCSF as Step 1 agent on licensing of tumor-induced activation by Flt3L+IL6 (conditioned BM cells) | survival / proliferation of STAT3KO BM in Step 1 conditioning (STAT3KO BM) | maturational and IL-12p70 response of STAT3KO DCs (STAT3KO BM; TLR stimulation, Step 2) | proliferation and DC differentiation of STAT5KO BM (STAT5KO BM)
1 | B1 | nearly global licensing for pronounced TLR reactivity | highly myeloproliferative | spontaneous tendency to complete DC maturation | yielded only a fraction of culture input |  |  |  |  |  |  |  |  |  | 
2 | B2 |  |  |  |  | extremely potent therapeutic properties |  |  |  |  |  |  |  |  | 
3 | B3 | infrequent and/or blunted responses to the TLR agonists |  |  |  |  | not at all inhibitory | abrogated | ineffective for propagating the T cells | further enhanced | fully abrogated | fully abrogated | normal proliferation kinetics | abnormally heightened maturational and IL-12p70 response to TLR stimulation | strikingly ineffective for generating DCs
